Consider nine molecules from patent US8436159B2, “Glyphosate resistant class I 5-endolpyruvylshikimate-3-phosphate synthase (EPSPS)” (Monsanto Technology LLC, priority 2003, dated 2013).

Series [1] relates to E. coli EPSPS variant, alanine for the glycine at position 96 (G96A). The following applies: read-out: apparent Km for PEP; glyphosate-resistant isolate; cited from earlier work.
Series [2] concerns the target T1, maize (Zea mays) class I EPSPS, wild type (WT), pMON70461, DNA SEQ ID NO:3 (Zea mays, UniProt O24566).
T1 construct: pMON70461
T1 sequence (O24566 with tags, fused parts or gaps): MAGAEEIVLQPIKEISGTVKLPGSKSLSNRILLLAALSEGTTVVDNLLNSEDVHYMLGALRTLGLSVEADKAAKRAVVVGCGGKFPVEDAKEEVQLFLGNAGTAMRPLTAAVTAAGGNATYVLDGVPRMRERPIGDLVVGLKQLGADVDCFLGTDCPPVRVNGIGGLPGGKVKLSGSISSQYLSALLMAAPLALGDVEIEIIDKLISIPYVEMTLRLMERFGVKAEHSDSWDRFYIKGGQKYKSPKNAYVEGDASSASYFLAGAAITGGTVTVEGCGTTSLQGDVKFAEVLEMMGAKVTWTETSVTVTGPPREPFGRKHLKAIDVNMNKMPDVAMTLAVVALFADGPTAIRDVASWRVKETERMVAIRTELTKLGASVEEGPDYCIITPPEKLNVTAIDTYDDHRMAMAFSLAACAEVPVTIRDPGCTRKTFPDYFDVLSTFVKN
In words: EPSPS steady-state kinetics, wild-type maize EPSPS. It counts as biochemical. As to the method:
The wild type and variant EPSPS coding sequences were cloned into a pET-19b base vector (Novagen, Madison, Wis.). The plant (maize) class I EPSPS variants so created were assigned pMON plasmid numbers (Table 2). The variant EPSPS proteins were purified from the E. coli host using the protocols outlined in the pET system manual, 9th edition (Novagen) or by the following method. A single colony or a few microliters from a glycerol stock was inoculated into 4 mL LB medium containing 0.1 mg/mL carbenicillin antibiotic. The culture was incubated with shaking at 37 C for 4 hours. The cultures were stored at 4° C. overnight. The following morning, 1 mL of the overnight culture was used to inoculate 100 mL of fresh LB medium containing 0.1 mg/mL carbenicillin. The cultures were incubated with shaking at 37 C for 4-5 hours, then the cultures were placed at 4° C. for 5-10 minutes. The cultures were then induced with IPTG (1 mM final concentration) and incubated with shaking at 30 C for 4 hours or 20° C. overnight. The cells were harvested by centrifugation at 7000 rpm for 20 minutes at 4° C. The supernatant was removed and the cells were frozen at −70° C. until further use. The proteins were extracted by resuspending the cell pellet in BugBuster reagent (Novagen) using 5 mL reagent per gram of cells. Benzonase (125 Units) was added to the resuspension and the cell suspension was then incubated on a rotating mixer for 20 minutes at room temperature. The cell debris was removed by centrifugation at 10,000 rpm for 20 minutes at room temperature. The supernatant was passed through a 0.45 μm syringe-end filter and transferred to a fresh tube. A pre-packed columns containing 1.25 mL of His-Bind resin was equilibrated with 10 mL of 5 mM imidazole, 0.5 M NaCl, 20 mM Tris-HCl pH 7.9 (1× Binding Buffer). The column was then loaded with the prepared cell extract. After the cell extract had drained, the column was then washed with 10 mL of 1× Binding Buffer, followed with 10 mL of 60 mM imidazole, 0.5 M NaCl, 20 mM Tris-HCl pH 7.9 (1× Wash Buffer). […]

In another series the test system is E. coli EPSPS, native. The settings on record: read-out: apparent Km for PEP; native enzyme; cited from earlier work.
Substrate in series [3]: C=C(OP(=O)(O)O)C(=O)O
In words: EPSPS steady-state kinetics, TIPA variant. The following applies: other: pH 7.0, 1 mM shikimate-3-phosphate, Table 2. It is filed as biochemical, maize (Zea mays).

Substrate in series [4]: C=C(OP(=O)(O)O)C(=O)O
In words: EPSPS steady-state kinetics, TIPM variant. It is filed as biochemical, maize (Zea mays). The following applies: other: pH 7.0, 1 mM shikimate-3-phosphate.

Substrate in series [5]: C=C(OP(=O)(O)O)C(=O)O
In words: EPSPS steady-state kinetics, TIPG variant. It counts as biochemical, maize (Zea mays). The settings on record: other: pH 7.0, 1 mM shikimate-3-phosphate.

Substrate in series [6]: C=C(OP(=O)(O)O)C(=O)O
In words: EPSPS steady-state kinetics, TIPS variant. It is filed as biochemical, maize (Zea mays). The settings on record: other: pH 7.0, 1 mM shikimate-3-phosphate.

Substrate in series [7]: C=C(OP(=O)(O)O)C(=O)O
In words: EPSPS steady-state kinetics, TIPI variant. It counts as biochemical, maize (Zea mays). The settings on record: other: pH 7.0, 1 mM shikimate-3-phosphate.

Substrate in series [8]: C=C(OP(=O)(O)O)C(=O)O
The experiment in a line: EPSPS steady-state kinetics, TIPV variant. It is filed as biochemical, maize (Zea mays). The settings on record: other: pH 7.0, 1 mM shikimate-3-phosphate.

Substrate in series [9]: C=C(OP(=O)(O)O)C(=O)O
In words: EPSPS steady-state kinetics, TIPT variant. It is filed as biochemical, maize (Zea mays). The following applies: other: pH 7.0, 1 mM shikimate-3-phosphate.

Substrate in series [10]: C=C(OP(=O)(O)O)C(=O)O
In words: purified protein, by the assay type. The settings on record: other: pH 7.0, 1 mM shikimate-3-phosphate.

Residue numbers refer to the chain shown, from its start. In names and notes the source's numbering stands.

The term Km denotes the substrate concentration at which the rate is half of its maximum. The term kcat denotes the maximal rate divided by the concentration of active sites. Consider `C=C(OP(=O)(O)O)C(=O)O` [PEP, phosphoenolpyruvate], for which the Km in series [1] is 220 µM; in series [2] (pH 7.0, 1 mM shikimate-3-phosphate, Table 2, read-out: Km-PEP), 27 ± 4 µM; in the series with E. coli EPSPS, native, 10 µM. Besides, in [2] (Table 5), the catalytic constant (kcat) came to 8.8 ± 0.5 s⁻¹.

B1: maize (Zea mays) class I EPSPS variant TIPA (T102I, P106A), pMON42481, ZmTIPA SEQ ID NO:39 (Zea mays; P106A/T102I) (protein)
chain: AGAEEIVLQPIKEISGTVKLPGSKSLSNRILLLAALSEGTTVVDNLLNSEDVHYMLGALRTLGLSVEADKAAKRAVVVGCGGKFPVEDAKEEVQLFLGNAGIAMRALTAAVTAAGGNATYVLDGVPRMRERPIGDLVVGLKQLGADVDCFLGTDCPPVRVNGIGGLPGGKVKLSGSISSQYLSALLMAAPLALGDVEIEIIDKLISIPYVEMTLRLMERFGVKAEHSDSWDRFYIKGGQKYKSPKNAYVEGDASSASYFLAGAAITGGTVTVEGCGTTSLQGDVKFAEVLEMMGAKVTWTETSVTVTGPPREPFGRKHLKAIDVNMNKMPDVAMTLAVVALFADGPTAIRDVASWRVKETERMVAIRTELTKLGASVEEGPDYCIITPPEKLNVTAIDTYDDHRMAMAFSLAACAEVPVTIRDPGCTRKTFPDYFDVLSTFVKN
notes: pMON42481
With B1, in series [3], the Michaelis-Menten constant (Km) was found to be 10.2 ± 1.1 µM, the kcat came out at 2.1 ± 0.1 s⁻¹ and the kcat/Km is reported as 0.2 µM^−1s^−1.

B2: maize (Zea mays) class I EPSPS variant TIPM (T102I, P106M), pMON42484 (Zea mays; P106M/T102I) (protein)
chain: B1 chain with A106M
notes: pMON42484
As to B2, the Michaelis-Menten constant (Km) in series [4] was 143.3 ± 12.6 µM.

B3: maize (Zea mays) class I EPSPS variant TIPG (T102I, P106G), pMON42480 (Zea mays; P106G/T102I) (protein)
chain: B1 chain with A106G
notes: pMON42480
Regarding B3, the Michaelis constant (Km) in series [5] was determined as 23.0 ± 3.7 µM.

B4: maize (Zea mays) class I EPSPS variant TIPS (T102I, P106S), pMON70462 (Zea mays; P106S/T102I) (protein)
chain: B1 chain with A106S
notes: pMON70462
On to B4, for which the Km in series [6] came out at 10.6 ± 1.6 µM.

B5: maize (Zea mays) class I EPSPS variant TIPI (T102I, P106I), pMON42486 (Zea mays; P106I/T102I) (protein)
chain: B1 chain with A106I
notes: pMON42486
As to B5, the Km in series [7] was 60.3 ± 2.8 µM.

B6: maize (Zea mays) class I EPSPS variant TIPV (T102I, P106V), pMON42482 (Zea mays; P106V/T102I) (protein)
chain: B1 chain with A106V
notes: pMON42482
As to B6, the Km in series [8] amounted to 109.3 ± 12.9 µM.

B7: maize (Zea mays) class I EPSPS variant TIPT (T102I, P106T), pMON58452, ZmTIPT SEQ ID NO:38 (Zea mays; P106T/T102I) (protein)
chain: B1 chain with A106T
notes: pMON58452
Consider B7, for which the Michaelis constant (Km) in series [9] was 11.2 ± 1.8 µM.

B8: maize (Zea mays) class I EPSPS variant TIPC (T102I, P106C), pMON42485 (Zea mays; P106C/T102I) (protein)
chain: B1 chain with A106C
Regarding B8, the Km in series [10] was 47.0 ± 4.0 µM.
